Results reported in PMC3711442 (Nucleic Acids Research, 2013).
Positions count from the first letter of the chain named. Numbers in names are those of the source.

T1: GST-BsUDG S189A (Bacillus subtilis, UniProt P39615 1-225, S189A)
T1 sequence: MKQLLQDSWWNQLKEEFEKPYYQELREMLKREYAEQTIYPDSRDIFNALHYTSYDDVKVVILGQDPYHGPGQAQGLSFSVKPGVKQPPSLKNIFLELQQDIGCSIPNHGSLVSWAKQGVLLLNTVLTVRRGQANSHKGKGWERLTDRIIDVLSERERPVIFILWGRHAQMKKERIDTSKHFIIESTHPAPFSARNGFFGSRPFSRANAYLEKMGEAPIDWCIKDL

T2: GST-BsUDG R194S (Bacillus subtilis, UniProt P39615 1-225, R194S)
T2 sequence: T1 sequence with A189S, R194S

T3: GST-BsUDG, wild type (Bacillus subtilis, UniProt P39615 1-225)
T3 sequence: T1 sequence with A189S

B1: phage ϕ29 protein p56, wild type (natural protein, Bacillus subtilis phage ϕ29)
chain: MVQNDFVDSYDVTMLLQDDDGKQYYEYHKGLSLSDFEVLYGNTADEIIKLRLDKVL
B2: phage ϕ29 protein p56 N42R (natural protein, Bacillus subtilis phage ϕ29)
chain: B1 chain with N42R
B3: phage ϕ29 protein p56 H28K (natural protein, Bacillus subtilis phage ϕ29)
chain: B1 chain with H28K
B4: phage ϕ29 protein p56 V38E (natural protein, Bacillus subtilis phage ϕ29)
chain: B1 chain with V38E
B5: phage ϕ29 protein p56 D45S (natural protein, Bacillus subtilis phage ϕ29)
chain: B1 chain with D45S
B6: phage ϕ29 protein p56 D45R (natural protein, Bacillus subtilis phage ϕ29)
chain: B1 chain with D45R

Tests used:
Experiment in all cases: pull-down
GST-BsUDG S189A = target: T1, GST-BsUDG S189A
GST-BsUDG R194S = target: T2, GST-BsUDG R194S
GST-BsUDG, wild type = target: T3, GST-BsUDG, wild type

Row | Binder | complexes formed relative to wild-type p56 (GST-BsUDG, wild type) [%] | other results
1 | B1 | – | reduction in p56 binding relative to wild-type GST-BsUDG (GST-BsUDG S189A): 84%; reduction in p56 binding relative to wild-type GST-BsUDG (GST-BsUDG R194S): 75%
2 | B2 | < 10 | –
3 | B3 | < 10 | –
4 | B4 | < 10 | –
5 | B5 | – | complex formation relative to wild-type p56 (GST-BsUDG, wild type): ~75%
6 | B6 | < 10 | –
